From publication PMC5925078

Columns and labels:
[1] = biological target: cytosolic deletion mutant of TNFR1 in which the death domain has been replaced by YFP, P19438; experiment: cellular binding study with GpL (luciferase) fusion protein; competition; HEK293 cells transiently expressing TNFR1 or TNFR2 (YFP deletion mutants); preincubation with purified sTNF or PGRN at 37°C; 10-20 ng/ml GpL-TNF; EV-transfected cells as non-specific binding
[2] = biological target: TNFR2 variant in which the intracellular binding site for TRAF2 has been substituted by YFP, P20333; experiment: as above

specific binding of 20 ng/ml GpL-TNF, fold over the unspecific background (the pair that is blocked) [2]: > 2400 fold
B1: GpL-Flag-TNC-TNF (ligand)
chain: ACGCAAAPDIKDLLSRLEELEGLVSSLREQSDKPVAHVVANPQAEGQLQWLNRRANALLANGVELRDNQLVVPSEGLYLIYSQVLFKGQGCPSTHVLLTHTISRIAVSYQTKVNLLSAIKSPCQRETPEGAEAKPWYEPIYLGGVFQLEKGDRLSAEINRPDYLDFAESGQVYFGIIAL
specific binding of 20 ng/ml GpL-TNF, fold over the unspecific background (the pair that is blocked) [1]: > 800 fold
